Data on six molecules can be found in article PMC10397247.

For one test, the target named is T1, 4H19-bA.
T1 chain: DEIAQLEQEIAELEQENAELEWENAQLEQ
Briefly: two-hybrid library CCNG1.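 Also: natural log of median RNA to DNA barcode read ratio; higher means stronger binding.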

For a further test, the target named is T2, 4H2696-bA.
T2 chain: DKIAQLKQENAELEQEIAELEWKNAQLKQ
As to the kind of experiment: two-hybrid library CCNG1.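 Also: natural log of median RNA to DNA barcode read ratio; higher means stronger binding.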

A further test addresses T3, 4H2883-bA.
T3 chain: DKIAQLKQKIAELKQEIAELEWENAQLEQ
Briefly: two-hybrid library CCNG1.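 Also: natural log of median RNA to DNA barcode read ratio; higher means stronger binding.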

The next test concerns the target T4, 4H2937-bA.
T4 chain: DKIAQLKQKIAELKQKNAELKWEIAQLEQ
Briefly: two-hybrid library CCNG1.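 Also: natural log of median RNA to DNA barcode read ratio; higher means stronger binding.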

The target in another test is T5, 4H2944-bA.
T5 chain: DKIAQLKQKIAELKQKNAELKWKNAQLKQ
Briefly: two-hybrid library CCNG1.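 Also: natural log of median RNA to DNA barcode read ratio; higher means stronger binding.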

The target in a further test is T6, 4H342-bA.
T6 chain: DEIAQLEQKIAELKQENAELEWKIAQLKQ
As to the kind of experiment: two-hybrid library CCNG1.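 Also: natural log of median RNA to DNA barcode read ratio; higher means stronger binding.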

For the next test, the target named is T7, 4H48-bA.
T7 chain: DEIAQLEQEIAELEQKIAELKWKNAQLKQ
Briefly: two-hybrid library CCNG1.

The target of a further test is T8, 4H491-bA.
T8 chain: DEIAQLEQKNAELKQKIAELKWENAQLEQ
As to the kind of experiment: two-hybrid library CCNG1.

For a further test, the target named is T9, 4H166-bA.
T9 chain: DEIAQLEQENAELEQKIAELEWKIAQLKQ
Briefly: two-hybrid library CCNG1.

For another test, the target named is T10, 4H2143-bA.
T10 chain: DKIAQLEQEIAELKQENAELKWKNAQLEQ
As to the kind of experiment: two-hybrid library CCNG1.

In a further test the target is T11, 4H2162-bA.
T11 chain: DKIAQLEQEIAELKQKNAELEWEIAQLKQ
As to the kind of experiment: two-hybrid library CCNG1.

A further test has as its target T12, 4H2233-bA.
T12 chain: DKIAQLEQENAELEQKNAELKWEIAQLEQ
Briefly: two-hybrid library CCNG1.

The target of another test is T13, 4H2253-bA.
T13 chain: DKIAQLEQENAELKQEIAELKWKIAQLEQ
As to the kind of experiment: two-hybrid library CCNG1.

The next test addresses T14, 4H235-bA.
T14 chain: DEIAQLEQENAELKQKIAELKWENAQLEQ
Briefly: two-hybrid library CCNG1.

Another test deals with T15, 4H2444-bA.
T15 chain: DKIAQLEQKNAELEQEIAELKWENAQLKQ
As to the kind of experiment: two-hybrid library CCNG1.

For another test, the target named is T16, 4H2518-bA.
T16 chain: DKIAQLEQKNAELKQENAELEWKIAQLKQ
Briefly: two-hybrid library CCNG1.

The next test concerns the target T17, 4H2585-bA.
T17 chain: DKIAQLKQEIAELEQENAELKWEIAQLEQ
As to the kind of experiment: two-hybrid library CCNG1.

In a further test the target is T18, 4H264-bA.
T18 chain: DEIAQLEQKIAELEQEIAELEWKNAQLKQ
Briefly: two-hybrid library CCNG1.

The target in the next test is T19, 4H2760-bA.
T19 chain: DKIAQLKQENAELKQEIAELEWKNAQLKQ
As to the kind of experiment: two-hybrid library CCNG1.

The target of the next test is T20, 4H2859-bA.
T20 chain: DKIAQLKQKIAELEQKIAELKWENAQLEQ
Briefly: two-hybrid library CCNG1.

In the next test the target is T21, 4H2931-bA.
T21 chain: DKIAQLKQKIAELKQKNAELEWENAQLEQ
As to the kind of experiment: two-hybrid library CCNG1.

Another test has as its target T22, 4H3041-bA.
T22 chain: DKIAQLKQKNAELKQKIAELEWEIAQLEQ
As to the kind of experiment: two-hybrid library CCNG1.

For the next test, the target named is T23, 4H3297-bA.
T23 chain: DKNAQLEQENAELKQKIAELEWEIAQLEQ
As to the kind of experiment: two-hybrid library CCNG1.

Another test addresses T24, 4H3364-bA.
T24 chain: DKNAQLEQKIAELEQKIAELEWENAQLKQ
Briefly: two-hybrid library CCNG1.

In a further test the target is T25, 4H3381-bA.
T25 chain: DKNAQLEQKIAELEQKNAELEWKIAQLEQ
Briefly: two-hybrid library CCNG1.

The next test concerns the target T26, 4H349-bA.
T26 chain: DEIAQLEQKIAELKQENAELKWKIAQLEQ
As to the kind of experiment: two-hybrid library CCNG1.

A further test addresses T27, 4H3628-bA.
T27 chain: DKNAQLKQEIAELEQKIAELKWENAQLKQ
As to the kind of experiment: two-hybrid library CCNG1.

In another test the target is T28, 4H4073-bN.
T28 chain: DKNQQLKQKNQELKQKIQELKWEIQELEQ
Briefly: two-hybrid library CCNG1.

A further test addresses T29, 4H56-bA.
T29 chain: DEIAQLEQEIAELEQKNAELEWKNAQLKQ
As to the kind of experiment: two-hybrid library CCNG1.

For the next test, the target named is T30, 4H730-bA.
T30 chain: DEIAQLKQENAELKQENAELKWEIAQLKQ
As to the kind of experiment: two-hybrid library CCNG1.

The target in another test is T31, 4H796-bA.
T31 chain: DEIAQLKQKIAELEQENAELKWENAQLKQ
Briefly: two-hybrid library CCNG1.

The next test deals with T32, 4H932-bA.
T32 chain: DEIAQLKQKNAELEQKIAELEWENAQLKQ
Briefly: two-hybrid library CCNG1.

For another test, the target named is T33, 4H949-bA.
T33 chain: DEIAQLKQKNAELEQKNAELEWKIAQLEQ
As to the kind of experiment: two-hybrid library CCNG1.

The target of another test is T34, Core_NNNN-es_KEKK.
T34 chain: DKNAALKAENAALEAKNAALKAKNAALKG
Briefly: two-hybrid library CCmax. The following applies: mean of both orientations.

A further test has as its target T35, Core_NNIN-es_KKKE.
T35 chain: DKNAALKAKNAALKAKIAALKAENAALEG
Briefly: two-hybrid library CCmax. The following applies: mean of both orientations.

The target in another test is T36, Core_NNII-es_KKKE.
T36 chain: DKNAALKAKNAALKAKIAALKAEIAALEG
As to the kind of experiment: two-hybrid library CCmax. The following applies: mean of both orientations.

The target of the next test is T37, Core_NNIN-es_KKEK.
T37 chain: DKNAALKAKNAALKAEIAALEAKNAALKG
Briefly: two-hybrid library CCmax. The following applies: mean of both orientations.

DEIAQLEQEIAELEQENAELEWENAQLEQ [4H19-bA]: the interaction score was -0.446 in the test with 4H19-bA; -1.13 with 4H2696-bA; -0.0858 with 4H2883-bA; 1.86 with 4H2937-bA; 2.54 with 4H2944-bA; -0.577 with 4H342-bA. In addition, the results for the interaction score with 4H48-bA and with 4H491-bA were -0.828 and -1.22, respectively.

For the molecule DEIAQLEQENAELEQKIAELEWKIAQLKQ [4H166-bA], the interaction score with 4H166-bA is 1.79; with 4H2143-bA it was -0.442; in the test with 4H2162-bA, 0.273; with 4H2233-bA, 0.472; with 4H2253-bA, 0.212; in the test with 4H235-bA it was 0.308. Besides, the interaction score with 4H2444-bA was 0.00294; with 4H2518-bA, 2.14; with 4H2585-bA, -0.344; with 4H264-bA, 1.18; with 4H2760-bA, 1.38; in the test with 4H2859-bA, 1.07. Besides, the interaction score is 1.56 in the test with 4H2931-bA; 1.54 with 4H3041-bA; 1.92 with 4H3297-bA; -0.668 with 4H3364-bA; 0.0741 with 4H3381-bA; -0.678 in the test with 4H349-bA. Moreover, the interaction score with 4H3628-bA is -0.111; in the test with 4H4073-bN it was 1.76; with 4H56-bA it was -0.289; in the test with 4H730-bA, -0.818; with 4H796-bA, -0.288; with 4H932-bA, -0.303. Further, the interaction score with 4H949-bA was 0.655.

Turning to DENAALEAKNAALKAENAALEAENAALEG [Core_NNNN-es_EKEE], the interaction score with Core_NNNN-es_KEKK worked out at 0.346.

In the test with Core_NNIN-es_KKKE, DENAALEAENAALEAEIAALEAKNAALKG [Core_NNIN-es_EEEK] displayed an interaction score of 2.07.

Molecule DENAALEAENAALEAEIAALEAKIAALKG [Core_NNII-es_EEEK] showed an interaction score in the test with Core_NNII-es_KKKE of 2.42.

On to DENAALEAENAALEAKIAALKAENAALEG [Core_NNIN-es_EEKE], for which the interaction score with Core_NNIN-es_KKEK is 2.2.
